We go through one protein from US20220202763A1 (FLORIDA INTERNATIONAL UNIVERSITY BOARD OF TRUSTEES, published 2022).

The data set deals with the molecule itself. The experiment in a line: crystal structure (chains A and B in the asymmetric unit) and size exclusion chromatography.

B1: PpArsN1 (ArsN1 arsinothricin N-acetyltransferase from Pseudomonas putida KT2440), one subunit (enzyme)
chain: MHSGIDIRVARPEDAEEIQIIYAPIVLNTAISFEEAVPSVEQMRERISTTLQTYPYLVAVREGRVVGYAYASQHRARAAYRWAVDVTVYVAEGQRRSGIARQLYDVLLPVLKRLGYRSAYAGIALPNEGSVGLHERLGFQHIGTFPQVGFKLDAWHDVGYWRFDFGDEGLHPEAPLGFLSQIPVPR
notes: Written as a single subunit; also called phoN1 gene product; not shown: C-terminal six histidine tag from vector pBAD-Myc/His-A; the vector-derived residues between protein and tag are not sta
In the case of B1, the binding result was “binds”.
